According to PMC10397247:

Assays:
[1] = molecular target: T1, 4H1040-AA; assay: two-hybrid library CCmax;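 note: natural log of median RNA to DNA barcode read ratio; higher means stronger binding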
T1 chain: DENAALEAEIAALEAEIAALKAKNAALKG

[2] = molecular target: T2, 4H1262-AA; assay: two-hybrid library CCmax; conditions: mean of both orientations;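 note: natural log of median RNA to DNA barcode read ratio; higher means stronger binding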
T2 chain: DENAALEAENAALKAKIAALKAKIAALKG

[3] = molecular target: T3, 4H133-AA; assay: two-hybrid library CCmax; conditions: mean of both orientations;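 note: natural log of median RNA to DNA barcode read ratio; higher means stronger binding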
T3 chain: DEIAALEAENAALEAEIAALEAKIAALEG

[4] = molecular target: T4, 4H1349-AA; assay: two-hybrid library CCmax; conditions: mean of both orientations;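 note: natural log of median RNA to DNA barcode read ratio; higher means stronger binding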
T4 chain: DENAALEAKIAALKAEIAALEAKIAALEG

[5] = molecular target: T5, 4H1384-AA; assay: two-hybrid library CCmax; conditions: mean of both orientations;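 note: natural log of median RNA to DNA barcode read ratio; higher means stronger binding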
T5 chain: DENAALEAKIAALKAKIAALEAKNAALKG

[6] = molecular target: T6, 4H1449-AA; assay: two-hybrid library CCmax; conditions: mean of both orientations;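 note: natural log of median RNA to DNA barcode read ratio; higher means stronger binding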
T6 chain: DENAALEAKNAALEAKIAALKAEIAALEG

[7] = molecular target: T7, 4H1593-AA; assay: two-hybrid library CCmax; conditions: mean of both orientations
T7 chain: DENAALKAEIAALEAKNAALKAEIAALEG

[8] = molecular target: T8, 4H1878-AA; assay: two-hybrid library CCmax; conditions: mean of both orientations
T8 chain: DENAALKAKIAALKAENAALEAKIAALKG

[9] = molecular target: T9, 4H235-AA; assay: two-hybrid library CCmax; conditions: mean of both orientations
T9 chain: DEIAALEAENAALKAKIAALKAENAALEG

[10] = molecular target: T10, 4H249-AA; assay: two-hybrid library CCmax; conditions: mean of both orientations
T10 chain: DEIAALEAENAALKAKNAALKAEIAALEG

[11] = molecular target: T11, 4H2580-AA; assay: two-hybrid library CCmax; conditions: mean of both orientations
T11 chain: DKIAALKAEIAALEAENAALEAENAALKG

[12] = molecular target: T12, 4H2604-AA; assay: two-hybrid library CCmax; conditions: mean of both orientations
T12 chain: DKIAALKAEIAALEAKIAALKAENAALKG

[13] = molecular target: T13, 4H2621-AA; assay: two-hybrid library CCmax; conditions: mean of both orientations
T13 chain: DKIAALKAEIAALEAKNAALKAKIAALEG

[14] = molecular target: T14, 4H2760-AA; assay: two-hybrid library CCmax; conditions: mean of both orientations
T14 chain: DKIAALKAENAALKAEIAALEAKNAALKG

[15] = molecular target: T15, 4H2774-AA; assay: two-hybrid library CCmax; conditions: mean of both orientations
T15 chain: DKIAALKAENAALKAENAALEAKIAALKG

[16] = molecular target: T16, 4H2903-AA; assay: two-hybrid library CCmax; conditions: mean of both orientations
T16 chain: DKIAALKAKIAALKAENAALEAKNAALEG

[17] = molecular target: T17, 4H2947-AA; assay: two-hybrid library CCmax; conditions: mean of both orientations
T17 chain: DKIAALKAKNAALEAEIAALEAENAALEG

[18] = molecular target: T18, 4H2961-AA; assay: two-hybrid library CCmax; conditions: mean of both orientations
T18 chain: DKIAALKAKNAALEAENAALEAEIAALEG

[19] = molecular target: T19, 4H3049-AA; assay: two-hybrid library CCmax; conditions: mean of both orientations
T19 chain: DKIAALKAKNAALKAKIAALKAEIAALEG

[20] = molecular target: T20, 4H3094-AA; assay: two-hybrid library CCmax; conditions: mean of both orientations
T20 chain: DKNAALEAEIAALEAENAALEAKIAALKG

[21] = molecular target: T21, 4H324-AA; assay: two-hybrid library CCmax; conditions: mean of both orientations
T21 chain: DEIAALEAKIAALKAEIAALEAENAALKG

[22] = molecular target: T22, 4H341-AA; assay: two-hybrid library CCmax; conditions: mean of both orientations
T22 chain: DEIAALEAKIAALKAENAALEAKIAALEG

[23] = molecular target: T23, 4H3449-AA; assay: two-hybrid library CCmax; conditions: mean of both orientations
T23 chain: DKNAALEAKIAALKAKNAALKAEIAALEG

[24] = molecular target: T24, 4H3619-AA; assay: two-hybrid library CCmax; conditions: mean of both orientations
T24 chain: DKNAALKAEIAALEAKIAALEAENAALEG

[25] = molecular target: T25, 4H3629-AA; assay: two-hybrid library CCmax; conditions: mean of both orientations
T25 chain: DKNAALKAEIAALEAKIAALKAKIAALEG

[26] = molecular target: T26, 4H3777-AA; assay: two-hybrid library CCmax; conditions: mean of both orientations
T26 chain: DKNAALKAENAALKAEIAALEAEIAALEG

[27] = molecular target: T27, 4H380-AA; assay: two-hybrid library CCmax; conditions: mean of both orientations
T27 chain: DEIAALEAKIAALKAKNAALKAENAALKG

[28] = molecular target: T28, 4H3915-AA; assay: two-hybrid library CCmax; conditions: mean of both orientations
T28 chain: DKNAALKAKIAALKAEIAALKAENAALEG

[29] = molecular target: T29, 4H3974-AA; assay: two-hybrid library CCmax; conditions: mean of both orientations
T29 chain: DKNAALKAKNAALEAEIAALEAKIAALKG

[30] = molecular target: T30, 4H432-AA; assay: two-hybrid library CCmax; conditions: mean of both orientations
T30 chain: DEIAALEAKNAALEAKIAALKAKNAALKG

[31] = molecular target: T31, 4H446-AA; assay: two-hybrid library CCmax; conditions: mean of both orientations
T31 chain: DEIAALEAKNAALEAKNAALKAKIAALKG

[32] = molecular target: T32, 4H63-AA; assay: two-hybrid library CCmax; conditions: mean of both orientations
T32 chain: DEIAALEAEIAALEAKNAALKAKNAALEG

[33] = molecular target: T33, 4H1615-AA; assay: two-hybrid library CCmax
T33 chain: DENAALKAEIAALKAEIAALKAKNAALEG

[34] = molecular target: T34, 4H1650-AA; assay: two-hybrid library CCmax; conditions: mean of both orientations
T34 chain: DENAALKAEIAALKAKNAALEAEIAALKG

[35] = molecular target: T35, 4H175-AA; assay: two-hybrid library CCmax; conditions: mean of both orientations
T35 chain: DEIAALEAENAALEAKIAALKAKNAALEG

[36] = molecular target: T36, 4H1765-AA; assay: two-hybrid library CCmax; conditions: mean of both orientations
T36 chain: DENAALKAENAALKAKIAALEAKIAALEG

[37] = molecular target: T37, 4H1821-AA; assay: two-hybrid library CCmax; conditions: mean of both orientations
T37 chain: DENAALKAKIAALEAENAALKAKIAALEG

[38] = molecular target: T38, 4H1828-AA; assay: two-hybrid library CCmax; conditions: mean of both orientations
T38 chain: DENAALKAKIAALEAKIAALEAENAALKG

[39] = molecular target: T39, 4H1930-AA; assay: two-hybrid library CCmax; conditions: mean of both orientations
T39 chain: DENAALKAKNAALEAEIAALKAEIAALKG

[40] = molecular target: T40, 4H2124-AA; assay: two-hybrid library CCmax; conditions: mean of both orientations
T40 chain: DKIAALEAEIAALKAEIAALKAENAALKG

[41] = molecular target: T41, 4H2165-AA; assay: two-hybrid library CCmax; conditions: mean of both orientations
T41 chain: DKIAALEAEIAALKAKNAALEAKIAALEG

[42] = molecular target: T42, 4H2253-AA; assay: two-hybrid library CCmax
T42 chain: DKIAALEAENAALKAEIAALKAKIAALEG

[43] = molecular target: T43, 4H2330-AA; assay: two-hybrid library CCmax; conditions: mean of both orientations
T43 chain: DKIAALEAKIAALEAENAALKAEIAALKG

[44] = molecular target: T44, 4H2343-AA; assay: two-hybrid library CCmax; conditions: mean of both orientations
T44 chain: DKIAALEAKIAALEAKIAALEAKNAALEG

[45] = molecular target: T45, 4H2466-AA; assay: two-hybrid library CCmax; conditions: mean of both orientations
T45 chain: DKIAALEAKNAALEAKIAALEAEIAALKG

[46] = molecular target: T46, 4H2592-AA; assay: two-hybrid library CCmax; conditions: mean of both orientations
T46 chain: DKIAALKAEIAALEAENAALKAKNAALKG

[47] = molecular target: T47, 4H2732-AA; assay: two-hybrid library CCmax; conditions: mean of both orientations
T47 chain: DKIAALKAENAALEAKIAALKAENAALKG

[48] = molecular target: T48, 4H2931-AA; assay: two-hybrid library CCmax; conditions: mean of both orientations
T48 chain: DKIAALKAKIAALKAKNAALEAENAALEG

[49] = molecular target: T49, 4H3001-AA; assay: two-hybrid library CCmax; conditions: mean of both orientations
T49 chain: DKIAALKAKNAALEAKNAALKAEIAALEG

[50] = molecular target: T50, 4H3015-AA; assay: two-hybrid library CCmax; conditions: mean of both orientations
T50 chain: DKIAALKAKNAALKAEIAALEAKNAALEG

[51] = molecular target: T51, 4H3073-AA; assay: two-hybrid library CCmax; conditions: mean of both orientations
T51 chain: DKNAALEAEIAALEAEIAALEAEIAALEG

[52] = molecular target: T52, 4H3438-AA; assay: two-hybrid library CCmax; conditions: mean of both orientations
T52 chain: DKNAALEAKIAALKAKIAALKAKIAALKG

[53] = molecular target: T53, 4H347-AA; assay: two-hybrid library CCmax; conditions: mean of both orientations
T53 chain: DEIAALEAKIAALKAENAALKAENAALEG

[54] = molecular target: T54, 4H406-AA; assay: two-hybrid library CCmax; conditions: mean of both orientations
T54 chain: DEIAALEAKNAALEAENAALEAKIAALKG

[55] = molecular target: T55, 4H452-AA; assay: two-hybrid library CCmax; conditions: mean of both orientations
T55 chain: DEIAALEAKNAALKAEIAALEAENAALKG

[56] = molecular target: T56, 4H56-AA; assay: two-hybrid library CCmax; conditions: mean of both orientations
T56 chain: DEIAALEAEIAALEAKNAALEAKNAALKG

[57] = molecular target: T57, 4H_APH; assay: two-hybrid library CCmax; conditions: mean of both orientations
T57 chain: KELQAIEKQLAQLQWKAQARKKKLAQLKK

[58] = molecular target: T58, 4H_BCR; assay: two-hybrid library CCmax; conditions: mean of both orientations
T58 chain: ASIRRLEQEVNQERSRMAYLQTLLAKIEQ

[59] = molecular target: 4H_GCN4; assay: two-hybrid library CCmax
4H_GCN4, sequence (chain, as listed by the source): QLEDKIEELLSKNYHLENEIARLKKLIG

[60] = molecular target: GCN2_T; assay: two-hybrid library CCmax; conditions: mean of both orientations
[61] = molecular target: T59, GCN4-SR; assay: two-hybrid library CCNG1
T59 chain: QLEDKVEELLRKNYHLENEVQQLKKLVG

[62] = molecular target: T59, GCN4-SR; assay: two-hybrid library CCmax

DENAALEAEIAALEAEIAALKAKNAALKG [4H1040-AA]
interaction score [1]: 0.802
interaction score [2]: 1.1
interaction score [3]: -1.47
interaction score [4]: 0.263
interaction score [5]: 0.28
interaction score [6]: 0.618
interaction score [7]: -1.27
interaction score [8]: -0.752
interaction score [9]: -1.14
interaction score [10]: -0.999
interaction score [11]: 1.19
interaction score [12]: 0.338
interaction score [13]: -0.66
interaction score [14]: -1.46
interaction score [15]: -0.661
interaction score [16]: 1.05
interaction score [17]: -1.06
interaction score [18]: -1.24
interaction score [19]: 1.34
interaction score [20]: -1.03
interaction score [21]: 1.68
interaction score [22]: -0.876
interaction score [23]: -0.935
interaction score [24]: 0.716
interaction score [25]: 1.28
interaction score [26]: -0.948
interaction score [27]: 0.307
interaction score [28]: 2.34
interaction score [29]: 0.222
interaction score [30]: -1.63
interaction score [31]: -1.4
interaction score [32]: -1.26

DENAALKAEIAALKAEIAALKAKNAALEG [4H1615-AA]
interaction score [33]: 1.78
interaction score [34]: -1.46
interaction score [35]: -1.43
interaction score [36]: -1.45
interaction score [37]: -1.23
interaction score [38]: -1.78
interaction score [39]: -1.07
interaction score [40]: -1.09
interaction score [41]: -1.55
interaction score [42]: -1.57
interaction score [43]: -1.4
interaction score [44]: -0.958
interaction score [45]: -1.57
interaction score [10]: -2.1
interaction score [46]: -1.27
interaction score [47]: -1.79
interaction score [15]: -1.47
interaction score [48]: -1.79
interaction score [49]: -1.81
interaction score [50]: -1.68
interaction score [51]: -0.406
interaction score [52]: -0.739
interaction score [53]: -1.38
interaction score [54]: -1.66
interaction score [55]: -1.96
interaction score [56]: -1.15
interaction score [57]: -1.58
interaction score [58]: -1.79
interaction score [59]: -1.57
interaction score [60]: -1.38

QLEDKVEELLRKNYHLENEVQQLKKLVG [GCN4-SR]
interaction score [61]: -2.35
interaction score [62]: -1.35
